From patent US20170368168A1 (AGENUS, published 2017)
Residue numbers refer to the chain shown, from its start. Names and notes keep the numbering of the source.

T1: recombinant mouse TIM-3 Fc (R&D Systems, #1529-TM) (mouse, UniProt Q8VIM0 20-191)
T1 construct: also called rmTIM-3 Fc; not shown: Fc part
T1 sequence (looked up): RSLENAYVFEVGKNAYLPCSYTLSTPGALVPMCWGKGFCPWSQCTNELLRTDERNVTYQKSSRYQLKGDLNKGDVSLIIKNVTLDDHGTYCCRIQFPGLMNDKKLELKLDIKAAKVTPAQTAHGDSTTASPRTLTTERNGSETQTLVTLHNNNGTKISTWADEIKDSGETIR

T2: recombinant human TIM-1 His (R&D Systems, Cat#1750-TM) (human, UniProt Q96D42 21-295)
T2 construct: also called rhTIM-1 His
T2 sequence (looked up): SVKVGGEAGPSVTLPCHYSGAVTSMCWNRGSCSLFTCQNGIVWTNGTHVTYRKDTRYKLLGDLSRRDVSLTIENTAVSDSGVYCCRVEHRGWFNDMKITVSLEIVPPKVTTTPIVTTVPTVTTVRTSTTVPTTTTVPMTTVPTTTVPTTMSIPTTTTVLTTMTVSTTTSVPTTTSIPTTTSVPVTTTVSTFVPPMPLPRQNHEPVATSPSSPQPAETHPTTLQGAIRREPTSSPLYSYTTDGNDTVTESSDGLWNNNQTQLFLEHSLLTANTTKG

T3: recombinant human TIM-4 His (R&D, Cat#2929-TM) (human, UniProt Q96H15 25-315)
T3 construct: also called rhTIM-4 His
T3 sequence (looked up): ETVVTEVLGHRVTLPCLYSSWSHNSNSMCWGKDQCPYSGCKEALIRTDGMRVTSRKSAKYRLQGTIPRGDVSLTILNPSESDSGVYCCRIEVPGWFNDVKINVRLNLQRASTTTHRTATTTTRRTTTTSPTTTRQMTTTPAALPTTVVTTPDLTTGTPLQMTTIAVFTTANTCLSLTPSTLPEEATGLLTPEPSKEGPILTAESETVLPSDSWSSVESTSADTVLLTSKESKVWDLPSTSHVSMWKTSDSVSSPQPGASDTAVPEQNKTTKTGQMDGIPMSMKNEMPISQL

T4: recombinant human OX40 His (Sino Biological, #10481-H08H) (human, UniProt P43489 29-216)
T4 construct: also called rhOX40 His
T4 sequence (looked up): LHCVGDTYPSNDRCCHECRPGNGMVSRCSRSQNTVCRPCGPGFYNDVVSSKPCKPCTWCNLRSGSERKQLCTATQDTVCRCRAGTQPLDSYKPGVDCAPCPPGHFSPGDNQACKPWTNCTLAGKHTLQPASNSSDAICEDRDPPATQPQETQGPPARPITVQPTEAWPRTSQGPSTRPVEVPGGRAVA

T5: recombinant human GITR Fc (R&D Systems, #689-GR) (human, UniProt Q9Y5U5 26-161)
T5 construct: also called rhGITR Fc; not shown: Fc part
T5 sequence (looked up): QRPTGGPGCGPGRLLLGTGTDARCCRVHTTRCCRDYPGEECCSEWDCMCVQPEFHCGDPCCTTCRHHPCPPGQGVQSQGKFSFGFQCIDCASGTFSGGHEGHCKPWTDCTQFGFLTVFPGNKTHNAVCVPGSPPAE

T6: recombinant human DR3 Fc (R&D Systems, #943-D3) (human, UniProt Q93038 25-201)
T6 construct: also called rhDR3 Fc; not shown: Fc part
T6 sequence (looked up): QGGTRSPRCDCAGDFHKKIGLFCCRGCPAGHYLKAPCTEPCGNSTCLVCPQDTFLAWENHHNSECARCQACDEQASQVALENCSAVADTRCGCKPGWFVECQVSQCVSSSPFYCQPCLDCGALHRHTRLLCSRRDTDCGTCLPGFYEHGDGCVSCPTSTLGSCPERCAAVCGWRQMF

T7: human TIM-3 expressed on cells (human, UniProt Q8TDQ0 22-301)
T7 construct: also called T cell immunoglobulin and mucin domain-3; HAVCR2
T7 sequence: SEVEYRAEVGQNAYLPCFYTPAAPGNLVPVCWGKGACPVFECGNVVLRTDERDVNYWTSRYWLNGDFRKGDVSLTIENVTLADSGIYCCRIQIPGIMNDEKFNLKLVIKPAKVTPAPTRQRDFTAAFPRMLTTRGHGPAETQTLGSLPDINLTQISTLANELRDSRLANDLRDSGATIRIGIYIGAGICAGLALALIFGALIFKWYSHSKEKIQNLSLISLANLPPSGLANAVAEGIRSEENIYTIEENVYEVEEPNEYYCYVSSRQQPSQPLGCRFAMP

B1: AM-2 (IgG1 N297A) (antibody, V domains shown)
VH: EVQLVESGGGLVQPGGSLRLSCAASGFTFRQNAWSWVRRAPGKGLEWVSAISGSGGSTYYADSVKGRFTISRDNSKNTLYLQMNSLRAEDTAVYYCAKGGDYGGNYFDYWGQGTLVTVSS
VL: EIVLTQSPATLSLSPGERATLSCRASQSVSSYLAWYQQKPGQAPRLLIYDASNRATGIPASFSGSGSGTDFTLTISRLEPEDFAVYYCQQYGSSPLTFGGGTKVEIKR
B2: AM-6 (IgG1 N297A) (antibody, V domains shown)
VH: B1 VH with R30A, Q31R
VL: B1 VL
B3: pab2188w (IgG1 N297A) (antibody, V domains shown)
VH: not shown
VL: B1 VL
B4: pab2088 (IgG1) (antibody, V domains shown)
VH: not shown
VL: DIQMTQSPSSLSASVGDRVTITCRASQGISNYLAWYQQKPGKVPKLLIYAASTLQSGVPSRFSGSGSGTDFTLTISRLEPEDFAVYYCQQYGSSPLTFGGGTKVEIK

Key:
[1] = molecular target: T1, recombinant mouse TIM-3 Fc (R&D …); assay: Luminex suspension array, antigen coupled to beads
[2] = molecular target: T2, recombinant human TIM-1 His (R&D …); assay: Luminex suspension array, antigen coupled to beads
[3] = molecular target: T3, recombinant human TIM-4 His (R&D, …); assay: Luminex suspension array, antigen coupled to beads
[4] = molecular target: T4, recombinant human OX40 His (Sino …); assay: Luminex suspension array, antigen coupled to beads
[5] = molecular target: T5, recombinant human GITR Fc (R&D Systems, …); assay: Luminex suspension array, antigen coupled to beads
[6] = molecular target: T6, recombinant human DR3 Fc (R&D Systems, …); assay: Luminex suspension array, antigen coupled to beads
[7] = molecular target: T8, recombinant human CD137 Fc (in house produced material) (human, UniProt Q07011 24-186); assay: Luminex suspension array, antigen coupled to beads
T8 construct: also called rhCD137 Fc; not shown: Fc part

[8] = molecular target: T7, human TIM-3 expressed on cells; assay: flow cytometry, Jurkat cells ectopically expressing human TIM-3
[9] = molecular target: T7, human TIM-3 expressed on cells; assay: flow cytometry, Jurkat cells ectopically expressing human TIM-3; pab2188w is the weaker comparator
[10] = molecular target: T9, recombinant human TIM-3 Fc (R&D Systems, Cat#2365-TM) (human, UniProt P01857-1 100-330 = IgG part); assay: Luminex suspension array, antigen coupled to beads
T9 construct: also called rhTIM-3 Fc; human TIM-3/Fc chimera

[11] = molecular target: T7, human TIM-3 expressed on cells; assay: flow cytometry, 1624-5 cells expressing human TIM-3

Row | binding result [8] | binding result [9] | binding result [10] | binding result [11] | Binder | binding result [1] | binding result [2] | binding result [3] | binding result [4] | binding result [5] | binding result [6] | binding result [7]
1 | binds |  |  |  | B1 | no binding (tested: 10000 ng/ml to 0.1 ng/ml) | no binding (tested: 10000 ng/ml to 0.1 ng/ml) | no binding (tested: 10000 ng/ml to 0.1 ng/ml) | no binding (tested: 10000 ng/ml to 0.1 ng/ml) | no binding (tested: 10000 ng/ml to 0.1 ng/ml) | no binding (tested: 10000 ng/ml to 0.1 ng/ml) | no binding (tested: 10000 ng/ml to 0.1 ng/ml)
2 | binds |  |  |  | B2 | no binding (tested: 10000 ng/ml to 0.1 ng/ml) | no binding (tested: 10000 ng/ml to 0.1 ng/ml) | no binding (tested: 10000 ng/ml to 0.1 ng/ml) | no binding (tested: 10000 ng/ml to 0.1 ng/ml) | no binding (tested: 10000 ng/ml to 0.1 ng/ml) | no binding (tested: 10000 ng/ml to 0.1 ng/ml) | no binding (tested: 10000 ng/ml to 0.1 ng/ml)
3 |  | binds |  |  | B3 | no binding (tested: 10000 ng/ml to 0.1 ng/ml) | no binding (tested: 10000 ng/ml to 0.1 ng/ml) | no binding (tested: 10000 ng/ml to 0.1 ng/ml) | no binding (tested: 10000 ng/ml to 0.1 ng/ml) | no binding (tested: 10000 ng/ml to 0.1 ng/ml) | no binding (tested: 10000 ng/ml to 0.1 ng/ml) | no binding (tested: 10000 ng/ml to 0.1 ng/ml)
4 |  |  | binds | binds | B4 |  | no binding (tested: 10 ng/ml, 100 ng/ml, and 1000 ng/ml) | no binding (tested: 10 ng/ml, 100 ng/ml, and 1000 ng/ml) |  |  |  | 
